According to patent US10900053, “Genome-modified recombinant adeno-associated virus vectors” (University of Florida Research Foundation, Incorporated):

Experiments:
Details in all cases: tags: Sigma; label: 32P
[1] = molecular target: T1, Glucocorticoid receptor (GR) (UniProt P04150 P04150:1-777); experiment: EMSA; 20 min 25 C, 6% gel 0.5xTBE; competed by 10-fold excess unlabeled GRE and 2- to 50-fold unlabeled D-sequence, not by NS (FIG. 3B)
Excerpt: (§1) In contrast, both D-sequences in the scAAV2 genomes are present in double-stranded forms. Since GR activation had no effect on the transduction efficiency for ssAAV2 vectors, it was hypothesized that the D-sequence might contain a putative GRE site. Indeed, there exists a sequence, GGTTCCT, at the end of the D-sequence, which shares partial homology to the consensus GRE site, 5'-GGTA-CANNNTGT(T/C)CT-3' (SEQ ID NO: 1) (34). The TGTTCT half-site is an essential core element which has been reported to be sufficient to relay glucocorticoid signaling (34). To experimentally test the possibility whether purified GR protein could bind to the D-sequence, electrophoretic mobility-shift assays (EMSAs) were carried out using double-stranded D-sequence oligonucleotides (D: 5'-[…]-3') (SEQ ID NO: 6). One of the conventional double-stranded GRE sequences (GRE: 5'-[…]-3') (SEQ ID NO: 13), and a non-specific (NS) sequence (NS: 5'-[…]-3') (SEQ ID NO: 10) were used as appropriate positive and negative controls, respectively. Each of the ^32P-labeled oligonucleotide probes was individually incubated with purified GR proteins for 20 minutes at 25° C. and then subjected to EMSAs. […]

[2] = molecular target: T1, Glucocorticoid receptor (GR); experiment: EMSA; 20 min 25 C; unlabeled NS does not compete GRE probe (FIG. 3B lane 6)
Excerpt: as §1

[3] = molecular target: T1, Glucocorticoid receptor (GR); experiment: EMSA; 20 min 25 C; GR binding to GRE only slightly more efficient than to D by densitometry; unlabeled D competes GRE probe at 2- to 50-fold excess

T1 sequence (P04150 whole entry, one chain of several): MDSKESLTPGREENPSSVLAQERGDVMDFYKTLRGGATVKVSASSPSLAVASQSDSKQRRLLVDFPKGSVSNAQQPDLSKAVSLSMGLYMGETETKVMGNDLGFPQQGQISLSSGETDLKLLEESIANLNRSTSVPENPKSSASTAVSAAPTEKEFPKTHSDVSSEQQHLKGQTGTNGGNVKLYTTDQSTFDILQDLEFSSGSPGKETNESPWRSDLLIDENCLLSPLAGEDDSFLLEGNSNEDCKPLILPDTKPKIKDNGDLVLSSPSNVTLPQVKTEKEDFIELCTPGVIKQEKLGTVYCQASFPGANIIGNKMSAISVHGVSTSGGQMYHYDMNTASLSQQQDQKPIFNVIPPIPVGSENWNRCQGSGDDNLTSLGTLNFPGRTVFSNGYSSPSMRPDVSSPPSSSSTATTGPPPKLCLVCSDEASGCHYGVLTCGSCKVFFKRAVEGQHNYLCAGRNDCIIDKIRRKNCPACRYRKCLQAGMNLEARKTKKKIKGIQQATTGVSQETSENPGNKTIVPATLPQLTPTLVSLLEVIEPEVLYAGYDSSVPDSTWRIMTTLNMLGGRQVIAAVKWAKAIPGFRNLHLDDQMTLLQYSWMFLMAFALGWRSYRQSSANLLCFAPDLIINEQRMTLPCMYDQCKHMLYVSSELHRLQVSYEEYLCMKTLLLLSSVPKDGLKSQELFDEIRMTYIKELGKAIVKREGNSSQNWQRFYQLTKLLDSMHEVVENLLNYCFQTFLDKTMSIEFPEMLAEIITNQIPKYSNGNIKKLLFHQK

B1: GRE (dsDNA)
DNA 1: CTAGGCTGTACAGGATGTTCTGCCTAG
DNA 2: CTAGGCAGAACATCCTGTACAGCCTAG
**Q.** Does B1 bind [1]?
**A.** binds

B2: Non-specific (NS) (dsDNA)
DNA 1: TATTAGATCTGATGGCCGCT
DNA 2: AGCGGCCATCAGATCTAATA
**Q.** Does B2 bind [2]?
**A.** no binding

B3: AAV2 D-sequence (D) (dsDNA)
DNA 1: CTCCATCACTAGGGGTTCCT
DNA 2: AGGAACCCCTAGTGATGGAG
**Q.** Does B3 bind [3]?
**A.** binds
